Data on three proteins can be found in PMC3185027, “Structural and functional roles of deamidation of N146 and/or truncation of NH2- or COOH-termini in human αB-crystallin” (Molecular Vision, 2011).

This data set deals with the molecule itself. In words: SEC-MALS; HPLC-coupled multi-angle laser light scattering (Wyatt), 18 angles; samples in 50 mM sodium phosphate pH 7.8, filtered through 0.22 μm; absolute molar mass of homomers.

Positions count from the first letter of the chain named. In names and notes the source's numbering stands.

B1: αB-CT (COOH-terminal extension deleted αB-crystallin) (domain or fragment, human, UniProt P02511 1-150, looked up)
chain: MDIAIHHPWIRRPFFPFHSPSRLFDQFFGEHLLESDLFPTSTSLSPFYLRPPSFLRAPSWFDTGLSEMRLEKDRFSVNLDVKHFSPEELKVKVLGDVIEVHGKHEERQDEHGFISREFHRKYRIPADVDPLTITSSLSSDGVLTVNGPRK
notes: human αB-crystallin lacking the COOH-terminal extension (residues 151-175); containing residues 1-150; Cloned in pET 100 Directional TOPO; also called COOH-terminally truncated αB; not shown: His6, N-terminal, kept
Consider B1, for which the binding result is “binds”.

B2: wild-type (WT) αB-crystallin (natural protein, human, UniProt P02511 1-175, looked up)
chain: MDIAIHHPWIRRPFFPFHSPSRLFDQFFGEHLLESDLFPTSTSLSPFYLRPPSFLRAPSWFDTGLSEMRLEKDRFSVNLDVKHFSPEELKVKVLGDVIEVHGKHEERQDEHGFISREFHRKYRIPADVDPLTITSSLSSDGVLTVNGPRKQVSGPERTIPITREEKPAVTAAPKK
notes: human αB-crystallin, full-length protein containing all residues from 1 to 175; Cloned in pET 100 Directional TOPO; also called His-tagged WT αB-crystallin; not shown: His6, N-terminal, kept
Regarding B2, the binding result is “binds”.

B3: αB N146D (deamidated αB-crystallin mutant) (natural protein, human, UniProt P02511 1-175, looked up)
chain: B2 chain with N146D
notes: human αB-crystallin, residues 1-175, Asn 146 changed to Asp to mimic deamidation; Cloned in pET 100 Directional TOPO; not shown: His6, N-terminal, kept
Take B3: the binding result is “binds”.
